Assay results from the nanobody polyreactivity screen of Harvey et al. (2022).

test: yeast display, Sf9 membrane polyspecificity reagent, FACS + sequencing; frameworks hold sequencing errors
In short: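 Galactose induction of a Saccharomyces cerevisiae BJ5465 synthetic nanobody display library ran 36–48 hours. The cells were then stained for 1 hour at 4 °C with 10% biotinylated, detergent-solubilized Sf9 membrane reagent, pulled down on streptavidin microbeads and FACS-sorted into low and high (top ~1%) gates on expression and reagent-binding fluorescence. Labels for polyreactivity follow the gate of origin.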

Row | Sequence | polyreactivity (PSR sort gate)
1 | QVQLVESGGGLVQAGGSLRLSCAASGRIFTRYVMGWSRQAPGKERELVAAISYRGGRTYYADSVKGRFTISRDNAKNTVYLQMNSLKPEDTAVYYCAVDYTLADVIYDYWGQGTQVTVSS | high polyreactivity
2 | QVQLVESGGGLVQAGGSLRLSCAASGRIFTSNAMAWYRQAPGKERELVAAISASGGRTYYADSVKGRFTISRDNAKNTVYLQMNSLKPEDTAVYYCAALSTGRLSDHGYWGQGTQVTVSS | high polyreactivity
3 | QVQLVESGGGLVQAGGSLRLSCAASGRIFTSYAKGWYRQAPGKERELVAAISRSGGSTYYADSVKGRFTISRDNAKNTVYLQMHSLKPEDTALYYCAKARVVAGYDYWGQGTQVTVSS | high polyreactivity
4 | QVQLVESGGGLVQAGGSLRLSCAASGRIFTTYALGWYRQAPGKERELVATITSGGDTSYADSVKGRFTISRDNAKNTVYLQMNSLKPEDTAVYYCNVGASLDQCSIPFEGYYYWGQGTQVTVSS | low polyreactivity
5 | QVQLVESGGGLVQAGGSLRLSCAASGRIFTTYAMGWYRQAPGKERELVAAISRSGGSTYYADSVKGRFTISRDNAKNTVYLQMKSLKPEDTAVYYCAAVPTSNSFRSSFYYWGQGTQVTVSS | high polyreactivity
6 | QVQLVESGGGLVQAGGSLRLSCAASGRIFTTYAMGWYRQAPGKERELVAAISRSGGSTYYADSVKGRFTISRDNAKNTVYLQMNSLKPEDTAVYYCAAVPTSNSFRSSFYYWGQGTEVTVSS | high polyreactivity
7 | QVQLVESGGGLVQAGGSLRLSCAASGRIFTTYAMGWYSRGPGKERELVAAISQNGGSTYYADSVKGRFTISRDNAKNTVYLQMNSLKPEDTAVYYCNAGPAGYYDYDYRGQGTQVTVSS | low polyreactivity
8 | QVQLVESGGGLVQAGGSLRLSCAASGRIFTTYTMGWYRQAPGKERELVAAISKRGGSTYYADSVKGRFTISRDNAKNTVYLQMNSLKPEDTAVYYCAAVGGRFFAPYIWSVDSYDYWGQGTQVTVSS | high polyreactivity
9 | QVQLVESGGGLVQAGGSLRLSCAASGRIFTTYVMGWYRQAPGKEWELVAAISARGSTYYADSVKGRFTISRDNAKNTVYLQMNSLKPEDTEVYYCAAGPRLPVYYGYPRATYNDWGQGTQVTVSS | low polyreactivity
10 | QVQLVESGGGLVQAGGSLRLSCAASGRIFTVNAMGWYRQAPGKESELVASIRYRGSSTYYADSVKGRFTISRDNAKNTVYLQMNSLKPEDTAVYYCAAVVRQYRPPGLYDYWGQGTQVTVSS | high polyreactivity
11 | QVQLVESGGGLVQAGGSLRLSCAASGRIFTVYAMGWYRQAPGKERELVAAIDWSDGSTYYADSVKGRFTISRDNAKNTVYLQMNCLKPEVTAVYYCAAETYWVVEYDYWGQGTQVTVSS | high polyreactivity
12 | QVQLVESGGGLVQAGGSLRLSCAASGRIFTVYAMGWYRQAPGKERELVAAISGRGGRTYYADSVKGRFTISRDNAKNTVYLQMNSLKPEDTAGYYCNADTLTLSRPDGDIHTVWMDYWGQGTQVTVSS | low polyreactivity
13 | QVQLVESGGGLVQAGGSLRLSCAASGRIFTVYAMGWYRQAPGKERELVAAISRGGSTYADSVKGRFTISRDNAKNTVYLQMNSLKPEDTAVYYCAAVNFRKGEDYWGQGTQVTVSS | high polyreactivity
14 | QVQLVESGGGLVQAGGSLRLSCAASGRIFTWSTMGWYRQAAGTERELVAAINRGGSTTYADSVKGRFTISRDNAKNTVYLQMNSLKPEDTAVYYCAAYRSTSRVYSNWRGYDYWGQGTQVTVSS | high polyreactivity
15 | QVQLVESGGGLVQAGGSLRLSCAASGRIFTYNAMGWYRQAPGKERELVAAISYSGGRTDYADSVKGRFTISRDNAKNTVYLQMHSLKPEDTAVYYCAARPGPYWTVTFRSPKYYYWGQGTQVTVSS | high polyreactivity
16 | QVQLVESGGGLVQAGGSLRLSCAASGRIFTYNAMGWYRQAPGKERELVAAITYRGSSTYYADSVKGRFTISRDNAKNTVYLQMNSLKPEDTAVYYCAAPRLIRFVTYYSWGQGTQVTVSS | high polyreactivity
17 | QVQLVESGGGLVQAGGSLRLSCAASGRIFTYYAMGWYRQAPGKERELVAAINWGVVTTYYADSVKGRFTISRDNAKNTVYLQMNSLKPEDSAVYYCAADWFAANYYVNPVSALYYWGQGTQVTVSS | low polyreactivity
18 | QVQLVESGGGLVQAGGSLRLSCAASGRIFTYYGMGWSRQAPGKEMELVAAISSSGDSTFYADSVKGRFTISRDNAKNTVYLQMNSLKPEDTAVYYCAADYYYVWYDYWGQGTQVTVSS | low polyreactivity
19 | QVQLVESGGGLVQAGGSLRLSCAASGRIFTYYPMGWYRQAPGKQRELVAAISWNGDSTYYADSVKGRFTISRDNAKNTVYLQMNSLKPEDTAVYYCIADSFTGYDYWGQGTQVTVSS | low polyreactivity
20 | QVQLVESGGGLVQAGGSLRLSCAASGRIFTYYTMGWYRQAPGKERELVAAISWSGGRTYYADSVKGRFTISRDNAKNTVYLQMNSLKPEDTAVYYCARLQDSRESPWRGYYWGQGTQVTVSS | high polyreactivity
21 | QVQLVESGGGLVQAGGSLRLSCAASGRIFTYYVMGWYRQAPWKERELVAAISYGGGSTYYADSVKGRFTISRDNAKNTVYLQMNSLKPEDTAGYYCAAEDGYRKMDYWGQGTQVTVSS | low polyreactivity
22 | QVQLVESGGGLVQAGGSLRLSCAASGRIFVAYAMGWYRQAPGKERELVADIDYIDGSTYYADSVKGRFTISRDNAKNTVYLQMNSLKPEDTAVYYCAVDSLYYAGYYDYWGQGTQVTVSS | high polyreactivity

Row | Sequence | polyreactivity (PSR sort gate)
23 | QVQLVESGGGLVQAGGSLRLSCAASGRIFVDNDMGWYRQAPGKERELVAAISGNGGNTNYADSVKGRFTISRDNAKNTVYFQMNSLKPEDTAVYYCAATYPVGHVYRYDYWGQGTQVTVSS | low polyreactivity
24 | QVQLVESGGGLVQAGGSLRLSCAASGRIFVDNDMGWYRQAPGKERELVAAISGNGGNTNYADSVKGRFTISRDNAKNTVYLQMNSLKPEDTAVYYCAATYPVGHVYRYDYWGQGTQVTVSS | low polyreactivity
25 | QVQLVESGGGLVQAGGSLRLSCAASGRIFVFYAMGWYRQAPGKERELVAAITSGGSTYYADSVKGRFTISRDNAKNTVYLQMNSLKPEDTAVYYCAARGRVSWSTYWYEYWGQGTQVTVSS | high polyreactivity
26 | QVQLVESGGGLVQAGGSLRLSCAASGRIFVGNTMGWYRQAPGKERELVAAITYRGGSTYYADSVKGRFTISRDNAKNTVYLQMNSLKPEDTAVYYCATAGYWGGDYWGQGTQVNVSS | low polyreactivity
27 | QVQLVESGGGLVQAGGSLRLSCAASGRIFVGYAMGWFRQAPGKERELVAAINRSGSSTYYADSVNGRFTISRDNAKNTVYLQMNSLKPEDTAVYYCAARYYPRVRYATYYGSYYWGQGTQVTVSS | high polyreactivity
28 | QVQLVESGGGLVQAGGSLRLSCAASGRIFVGYAMGWSRQAPRNERELVAAISDRGGNTYYADSVKGRFTISRDNAKNTVYFQMNSLKPEDTAVYYCAKEVRWWYGYWGQGTQVTVSS | high polyreactivity
29 | QVQLVESGGGLVQAGGSLRLSCAASGRIFVGYAMGWYRQAPGKERELVAAINRSGSSTYYADSVKGRFTISRDYAKITVYLQMNSLKPEDTAVYYCNARSGNRYGPRYDYWGQGTQVTVSS | high polyreactivity
30 | QVQLVESGGGLVQAGGSLRLSCAASGRIFVGYAMGWYRQAPGKERELVAAISARGGSTYYADSVMGRFTISRDNAKNTVYLQMNSLKPEDTADYYCAADEASSRGYYDSDYWGQCTQVTVSS | low polyreactivity
31 | QVQLVESGGGLVQAGGSLRLSCAASGRIFVGYAMGWYRQAPGKERELVATITGSGGRTYYADSVKGRFTISRDNAKNTVYLQMNSLKPEDTAVFYCATRPPLFYYDDHDDDDYWGQGTQVTVSS | low polyreactivity
32 | QVQLVESGGGLVQAGGSLRLSCAASGRIFVHYAMGWYRQAPGKEREWVAAITSGSSTNYADSVKGRFTISRDNAKNTVYLQMNSLKPEDTAVYYCAVDDWLDWLCADFGYWGQGTQVTVSS | low polyreactivity
33 | QVQLVESGGGLVQAGGSLRLSCAASGRIFVKNAMGWYRQAPGKERELVAGISRGGSTYYADSVKGRFTISRDNAKNTVYLQMNSLKPEDTAVYYCATRNYGRGQFDYWGQGTQVTVSS | high polyreactivity
34 | QVQLVESGGGLVQAGGSLRLSCAASGRIFVKYAMGLYRQAPGKERELVAAIRSGGSTYYADSVKRRFTISRDNAKYTVYLQMNSLKPEDTAVYYCAADRNKHHYYNEPYDYWGQGTQVTVSS | low polyreactivity
35 | QVQLVESGGGLVQAGGSLRLSCAASGRIFVNNAMGWYRQAPGKEREFVAGISFSGDGRTYYADSVKGRFTISRDNAKNTVYLQMNSLKPEDTAVYYCAAPHRSRTHELDYWGQGTQVTVSS | low polyreactivity
36 | QVQLVESGGGLVQAGGSLRLSCAASGRIFVNYAMGWYRQAPGKERELDAAITSDGSTSYADSVKGRFTISRDNAKNTVYLQMNSLKPEDTAVYYCAKDFFEHSPVSHTYSSSKYDYWGQGTQVTVSS | low polyreactivity
37 | QVQLVESGGGLVQAGGSLRLSCAASGRIFVPYAMGWYRQAPGKERELVATITFGGGRTYYADSVKGRFTISRDNAKNTVYLQMNSLKPEDTAVYYCAADYYLWRLPVYAQRSFVRGDYWGQGTQVTVSS | low polyreactivity
38 | QVQLVESGGGLVQAGGSLRLSCAASGRIFVPYAMGWYRQAPGKERELVAVISRGGSTYYADSVKGRFTISRDNAKNTVYLQMNSLKPEDTAVYYCAARGVNRQGFNYWGQGTQVTVSS | high polyreactivity
39 | QVQLVESGGGLVQAGGSLRLSCAASGRIFVQNAMGWYRQAPGKEREVVAAISSRGTSTYYADSVKGRFTISRDNAKNTVYLQMNSLKPEDTALYYCAAREWRTFDYWGQGTQVTVSS | low polyreactivity
40 | QVQLVESGGGLVQAGGSLRLSCAASGRIFVQYVMGWYRPAPGKERELVAAITGSDSTTYYADSVKGRFTISRDNAKNTVYLQMNSLKPEDTAVYYCNKDLWLQDDYWGQGTQVTVSS | low polyreactivity
41 | QVQLVESGGGLVQAGGSLRLSCAASGRIFVRNAMGWYRQAPGKERELVAAISWSSGGTYYADSVKGRFTISRDNAKNTVYLQMNSLKPEDTAVYYCNADPSRAGDYWGQGTQVTVSS | low polyreactivity
42 | QVQLVESGGGLVQAGGSLRLSCAASGRIFVRYAMGWYRQAPGKERELVAAIRWSGGRTYYADSVKGRFTISRDNAKNTFYLQMNSLKPEDTAVYYCAVRYRDLFGYWGQGTQVTVSS | high polyreactivity
43 | QVQLVESGGGLVQAGGSLRLSCAASGRIFVRYAMGWYRQAPGKERELVAAISSGGRTHYADSVKGRFTISRDNAKNTVYLQRNSLKPEDTAVYDCATRLRSTTRYYYWGQGTQVTVSS | high polyreactivity
